Results taken from IntAct's records for PubMed 31515488.

B1: Microtubule-associated tumor suppressor candidate 2 (Homo sapiens), Q5JR59-3 (parent)
chain: MGHCCCKPYNCLQCLDKTNESALVKEKELSIELANIRDEVAFHTAKCEKLQKEKEELERRFEDEVKRLGWQQQAELQELEERLQLQFEAEMARLQEEHGDQLLSIRCQHQEQVEDLTASHDAALLEMENNHTVAITILQDDHDHKVQELMSTHELEKKELEENFEKLRLSLQDQVDTLTFQSQSLRDRARRFEEALRKNTEEQLEIALAPYQHLEEDMKSLKQVLEMKNQQIHEQEKKILELEKLAEKNIILEEKIQVLQQQNEDLKARIDQNTVVTRQLSEENANLQEYVEKETQEKKRLSRTNEELLWKLQTGDPTSPIKLSPTSPVYRGSSSGPSSPARVSTTPR
partner: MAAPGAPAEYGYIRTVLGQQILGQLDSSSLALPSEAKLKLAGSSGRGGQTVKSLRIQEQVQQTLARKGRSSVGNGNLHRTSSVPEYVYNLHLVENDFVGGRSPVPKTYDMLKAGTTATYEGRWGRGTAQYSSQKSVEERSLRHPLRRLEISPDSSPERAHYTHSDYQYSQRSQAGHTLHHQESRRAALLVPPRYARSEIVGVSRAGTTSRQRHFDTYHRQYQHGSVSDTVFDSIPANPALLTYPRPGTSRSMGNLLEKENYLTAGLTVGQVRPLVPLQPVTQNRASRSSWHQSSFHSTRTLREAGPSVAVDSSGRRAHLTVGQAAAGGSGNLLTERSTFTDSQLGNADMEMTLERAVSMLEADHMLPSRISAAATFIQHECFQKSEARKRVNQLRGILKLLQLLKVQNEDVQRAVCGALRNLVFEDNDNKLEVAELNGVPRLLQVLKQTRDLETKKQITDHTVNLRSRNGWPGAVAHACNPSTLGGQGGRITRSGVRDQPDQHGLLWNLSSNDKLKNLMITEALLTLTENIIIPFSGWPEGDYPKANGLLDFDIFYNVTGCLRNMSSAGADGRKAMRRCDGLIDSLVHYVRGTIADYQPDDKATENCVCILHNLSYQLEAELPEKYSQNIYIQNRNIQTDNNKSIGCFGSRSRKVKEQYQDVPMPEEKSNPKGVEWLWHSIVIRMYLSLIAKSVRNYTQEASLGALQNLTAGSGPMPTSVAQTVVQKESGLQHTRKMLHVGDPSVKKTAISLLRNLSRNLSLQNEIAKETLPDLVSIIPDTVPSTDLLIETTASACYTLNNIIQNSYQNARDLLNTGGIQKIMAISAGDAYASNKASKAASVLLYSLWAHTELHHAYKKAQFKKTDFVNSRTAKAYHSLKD
B2: Ligand of Numb protein X 2 (Homo sapiens), Q8N448 (parent)
chain: MGTTSDEMVSVEQTSSSSLNPLCFECGQQHWTRENHLYNYQNEVDDDLVCHICLQPLLQPLDTPCGHTFCYKCLRNFLQEKDFCPLDRKRLHFKLCKKSSILVHKLLDKLLVLCPFSSVCKDVMQRCDLEAHLKNRCPGASHRRVALERRKTSRTQAEIENENGPTLLDPAGTLSPEADCLGTGAVPVERHLTSASLSTWSEEPGLDNPAFEESAGADTTQQPLSLPEGEITTIEIHRSNPYIQLGISIVGGNETPLINIVIQEVYRDGVIARDGRLLAGDQILQVNNYNISNVSHNYARAVLSQPCNTLHLTVLRERRFGNRAHNHSDSNSPREEIFQVALHKRDSGEQLGIKLVRRTDEPGVFILDLLEGGLAAQDGRLSSNDRVLAINGHDLKYGTPELAAQIIQASGERVNLTIARPGKPQPGNTIREAGNHSSSSQHHTPPPYYSRPSSHKDLTQCVTCQEKHITVKKEPHESLGMTVAGGRGSKSGELPIFVTSVPPHGCLARDGRIKRGDVLLNINGIDLTNLSHSEAVAMLKASAASPAVALKALEVQIVEEATQNAEEQPSTFSENEYDASWSPSWVMWLGLPSTLHSCHDIVLRRSYLGSWGFSIVGGYEENHTNQPFFIKTIVLGTPAYYDGRLKCGDMIVAVNGLSTVGMSHSALVPMLKEQRNKVTLTVICWPGSLV
partner: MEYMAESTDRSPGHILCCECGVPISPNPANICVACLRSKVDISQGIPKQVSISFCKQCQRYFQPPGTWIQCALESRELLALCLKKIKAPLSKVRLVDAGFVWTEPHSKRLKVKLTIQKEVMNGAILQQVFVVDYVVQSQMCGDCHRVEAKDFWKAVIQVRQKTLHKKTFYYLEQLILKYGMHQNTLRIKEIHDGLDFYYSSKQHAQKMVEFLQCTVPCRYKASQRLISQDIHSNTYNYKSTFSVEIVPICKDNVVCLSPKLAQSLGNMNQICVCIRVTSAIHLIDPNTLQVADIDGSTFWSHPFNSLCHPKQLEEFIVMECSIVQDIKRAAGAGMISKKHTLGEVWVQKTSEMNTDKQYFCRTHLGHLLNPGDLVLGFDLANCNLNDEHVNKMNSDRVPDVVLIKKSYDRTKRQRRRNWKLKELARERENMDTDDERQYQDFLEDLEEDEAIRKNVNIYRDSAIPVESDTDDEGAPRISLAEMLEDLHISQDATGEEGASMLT
B3: Protein LRATD2 (Homo sapiens), Q96KN1 (parent)
chain: MGNQVEKLTHLSYKEVPTADPTGVDRDDGPRIGVSYIFSNDDEDVEPQPPPQGPDGGGLPDGGDGPPPPQPQPYDPRLHEVECSVFYRDECIYQKSFAPGSAALSTYTPENLLNKCKPGDLVEFVSQAQYPHWAVYVGNFQVVHLHRLEVINSFLTDASQGRRGRVVNDLYRYKPLSSSAVVRNALAHVGAKERELSWRNSESFAAWCRYGKREFKIGGELRIGKQPYRLQIQLSAQRSHTLEFQSLEDLIMEKRRNDQIGRAAVLQELATHLHPAEPEEGDSNVARTTPPPGRPPAPSSEEEDGEAVAH
partner: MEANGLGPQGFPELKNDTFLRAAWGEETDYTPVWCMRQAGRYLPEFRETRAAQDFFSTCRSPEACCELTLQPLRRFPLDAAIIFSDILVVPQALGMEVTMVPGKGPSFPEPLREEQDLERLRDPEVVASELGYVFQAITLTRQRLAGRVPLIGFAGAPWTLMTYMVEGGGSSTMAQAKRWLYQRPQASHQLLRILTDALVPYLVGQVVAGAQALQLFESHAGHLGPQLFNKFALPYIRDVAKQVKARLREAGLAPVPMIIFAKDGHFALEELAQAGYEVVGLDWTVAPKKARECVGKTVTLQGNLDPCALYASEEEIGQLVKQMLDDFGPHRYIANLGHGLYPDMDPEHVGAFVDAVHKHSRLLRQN
B4: Protein FAM200C (Homo sapiens), Q8IZ13 (parent)
chain: MSKKRKWDDDYVRYWFTCTTEVDGTQRPQCVLCNSVFSNADLRPSKLSDHFNRQHGGVAGHDLNSLKHMPAPSDQSETLKAFGVASHEDTLLQASYQFAYLCAKEKNPHTVAEKLVKPCALEIAQIVLGPDAQKKLQQVPLSDDVIHSRIDEMSQDILQQVLEDIKASPLKVGIQLAETTDMDDCSQLMAFVRYIKEREIVEEFLFCEPLQLSMKGIDVFNLFRDFFLKHKIALDVCGSVCTDGASSMLGENSEFVAYVKKEIPHIVVTHCLLNPHALVIKTLPTKLRDALFTVVRVINFIKGRAPNHRLFQAFFEEIGIEYSVLLFHTEMRWLSRGQILTHIFEMYEEINQFLHHKSSNLVDGFENKEFKIHLAYLADLFKHLNELSASMQRTGMNTVSAREKLSAFVRKFPFWQKRIEKRNFTNFPFLEEIIVSDNEGIFIAAEITLHLQQLSNFFHGYFSIGDLNEASKWILDPFLFNIDFVDDSYLMKNDLAELRASGQILMEFETMKLEDFWCAQFTAFPNLAKTALEILMPFATTYLCELGFSSLLHFKTKSRSCFNLSDDIRVAISKKVPRFSDIIEQKLQLQQKSL
partner: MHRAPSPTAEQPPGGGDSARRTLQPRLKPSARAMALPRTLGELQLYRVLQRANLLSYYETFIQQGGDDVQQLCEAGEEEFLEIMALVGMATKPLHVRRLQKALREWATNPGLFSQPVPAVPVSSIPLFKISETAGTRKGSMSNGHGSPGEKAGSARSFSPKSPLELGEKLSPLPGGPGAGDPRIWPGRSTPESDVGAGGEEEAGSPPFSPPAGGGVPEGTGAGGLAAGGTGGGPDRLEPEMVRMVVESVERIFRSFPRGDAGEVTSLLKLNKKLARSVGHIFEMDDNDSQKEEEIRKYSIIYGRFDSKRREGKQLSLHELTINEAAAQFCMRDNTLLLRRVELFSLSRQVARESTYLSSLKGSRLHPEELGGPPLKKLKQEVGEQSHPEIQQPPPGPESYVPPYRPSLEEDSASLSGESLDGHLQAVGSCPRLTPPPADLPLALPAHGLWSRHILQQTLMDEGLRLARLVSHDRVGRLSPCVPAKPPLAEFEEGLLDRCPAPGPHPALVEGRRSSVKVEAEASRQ

Variants of: B1
Conditions: with pkp2_human PKP2, Q99959

Variant	effect of a mutation on the interaction
A89V	with no effect

Variants of: B2
Conditions: with nmd3_human NMD3, Q96D46

Variant	effect of a mutation on the interaction
V145I	with no effect
T183I	with no effect

Variants of: B3
Conditions: with dcup_human UROD

Variant	effect of a mutation on the interaction
P71T	with no effect

Variants of: B4
Conditions: with nab2_human NAB2, Q15742

Variant	effect of a mutation on the interaction
M248K	with no effect
A523S	with no effect
